Experimental findings from patent publication US20090041794A1 (IMMATICS BIOTECHNOLOGIES, published 2009) are described below.

This assay addresses T1, HLA-A*0201 molecule on TAP-deficient T2 cells (human).
T1 construct: also called HLA-A2
Briefly: in vitro reconstitution (T2 whole cell-binding) assay on TAP-deficient T2 cells, compared with the Flu reference peptide.

B1: iLR2 146-154 (ALCNTDSPL) (peptide)
peptide: ALCNTDSPL
notes: Synthetic peptide bought from Biosynthan, more than 90% purity; also called RPS-002
Consider B1, for which the binding result is “binds”.

B2: iLR1 59-68 (LLAARAIVAI) (peptide)
peptide: LLAARAIVAI
notes: Synthetic peptide bought from Biosynthan, more than 90% purity; also called RPS-001
Turning to B2, the binding result is “binds”.
